# Data reported in patent publication US7648964B2, “Use of lacritin in promoting ocular cell survival” (University of Virginia Patent Foundation, priority 2004, dated 2010).
# Entries after “also recorded” stand apart in the source; their conditions may differ.
# B1: lacritin: recombinant human lacritin from E. coli; mature 119 residue fragment (SEQ ID NO:10) of native lacritin SEQ ID NO:4 (protein, listed as Homo sapiens)
# chain: EDASSDSTGADPAQEAGTSKPNEEISGPAEPASPPETTTTAQETSAAAVQGTAKVTSSRQELNPLKSIVEKSILLTEQALAKAGKGMHGGVPGGKQFIENGSEFAQKLLKKFSLLKPWA
# B2: N-24: deletion mutant comprising a deletion of the 24 amino terminal amino acids of lacritin (protein)
# chain: DSTGADPAQEAGTSKPNEEISGPAEPASPPETTTTAQETSAAAVQGTAKVTSSRQELNPLKSIVEKSILLTEQALAKAGKGMHGGVPGGKQFIENGSEFAQKLLKKFSLLKPWA
# modifications: homo sapiens
# notes: deletion mutant comprising a deletion of the 24 amino terminal amino acids of lacritin
# Columns and labels:
# HSG cells = experiment: Calcium mobilization imaging in HSG cells (Fluo-4); assay type: cell-based, human
# Protocol: Cells were seeded at 1.4×10^4 HSG cells/mm^2 or 0.7×10^4 HSG cells/mm^2 on Matrigel-coated (100 μg/ml; BD Biosciences; San Diego Calif.) coverslips to respectively achieve 70-80% confluency after overnight or 48 h growth in 6-well plates containing phenol red-free Dulbecco's modified Eagle's medium with 10% fetal calf serum.
# Other cells were incubated (0.7×10^4HSG cells/mm^2 overnight plating) with 100 ng/ml pertussis toxin (Calbiochem; San Diego Calif.) in phenol red-free Dulbecco's modified Eagle's medium with 10% fetal calf serum; or vehicle alone). Cells were washed with calcium-free/phenol red-free Hanks basic salt solution, 20 mM N-2-hydroxyethylpiperazine-N′-2-ethane sulfonic acid and then incubated for 1 h at room temperature with the same solution containing fluo-4 μM at 4 μM (FluoroPure grade [Molecular Probes; Eugene Oreg.] dissolved in DMSO plus 20% Pluronic F-127). Cells were washed three times for 60 min at room temperature with calcium-free/phenol red-free Hanks basic salt solution with 5 mM Ca^2+ or 5 mM EGTA. Temperature was stabilized for 5 min at 37° C. coverslips were placed on the stage of a TE-200 epifluorescent microscope (Bio-Rad Radiance2100 confocal/multiphoton system using Plan Fluor 60×NA 1.4 Oil IR objective lens [Bio-Rad, Hercules Calif.] as part of the W. M. Keck Center for Cellular Imaging, University of Virginia), subjected to a 488 nm argon laser light source with emission at 528 nm. Baseline monitoring was followed by addition of lacritin or deletion fragments in phenol red-free Hanks basic salt solution.
# caspase-8 = experiment: Caspase-8 activity in human corneal epithelial cells treated with TNF-α; assay type: cell-based
# Protocol: FIG. 12 graphically illustrates the ability of lacritin polypeptides to block TNFα induced caspase-8 activity in human corneal epithelial cells. The ordinate represents relative fluorescence units. White bars indicate 1 hour and diagonally-hatched bars indicate 6 hours.
# Lacritin-induced proliferation and calcium signaling was studied in the human corneal epithelial (HCE) cell line. HCE cells were grown at 37° C. in DMEM F/12 supplemented with 10% FBS and 50 μg/ml gentamicin. Each experiment was done in a dose- and time-dependent manner using TNF-α (5-20 ng/ml) and lacritin (1-10 nM). Cell viability was measured spectrophotometrically at an absorbance of 570 nm using the MTT assay. Caspase-8 activity was detected fluorometrically by measuring cleavage of the fluorogenic substrate IETD-pNA at an excitation wavelength of 405 nm. Lacritin-induced cell proliferation was studied by H3-thymidine incorporation and via fluorescence-based detection of PKC, PLC and cAMP. Calcium signaling was detected by confocal microscopy of Fluo-4 loaded cells.
# [1] = system: human corneal epithelial (HCE) cells; experiment: 3H-thymidine uptake mitogenesis assay; assay type: cell-based
# Protocol: For phosphotyrosine blotting and mitogenesis assays, cells in serum-containing media were seeded overnight in 24-well plates at a density of 0.5×10^5 cells/mm^2 corresponding to 20-30% confluency after cell attachment, incubated in serum-free media without supplements for 24 h (phosphotyrosine) or washed with serum-free media without supplements three times (mitogenesis) and incubated with lacritin (1-1000 nM), or positive controls EGF (1.6 nM) and 10% fetal bovine serum, or negative controls bovine serum albumin or no additive in serum-free media without supplements for the indicated times (phosphotyrosine) or 30 h (mitogenesis). […] After washing, bound antibodies were detected with peroxidase-labeled secondary antibody and ECL. […] Incorporation was stopped with ice-cold phosphate buffered saline and followed by addition of cold and then room temperature trichloracetic acid (10%) for 10 min each, washing of cells with phosphate buffered saline, solubilization with 1 N sodium hydroxide, neutralization with 1 N hydrochloric acid, addition of scintillation fluid and then quantitation in a scintillation counter. […] Seventy-two hours post-transfection, mitogenesis was assessed by co-addition of 10 […] lacritin and [^3H]-thymidine (2 mCi/ml) (Amersham, Piscataway N.J.) for 24 hrs. […]
# [2] = system: human salivary ductal (HSG) cells; experiment: 3H-thymidine uptake mitogenesis assay; assay type: cell-based
# Protocol: For phosphotyrosine blotting and mitogenesis assays, cells in serum-containing media were seeded overnight in 24-well plates at a density of 0.5×10^5 cells/mm^2 corresponding to 20-30% confluency after cell attachment, incubated in serum-free media without supplements for 24 h (phosphotyrosine) or washed with serum-free media without supplements three times (mitogenesis) and incubated with lacritin (1-1000 nM), or positive controls EGF (1.6 nM) and 10% fetal bovine serum, or negative controls bovine serum albumin or no additive in serum-free media without supplements for the indicated times (phosphotyrosine) or 30 h (mitogenesis). For phosphotyrosine assays, cells were extracted in 1% NP40 containing sodium vanadate (2 mg/ml), DTT (5 mg/ml), protease inhibitors, 50 mM HEPES, 100 mM NaCl, and 2 mM EDTA; then separated by 10% SDS PAGE, transferred and blotted. The following antibodies (Cell Signaling Technology, Beverly Mass.) were tested: antiphosphotyrosine antibody (P-Tyr-100), anti-phospho-PKC αβII, anti-PKCα, anti-phospho-PKCδ, anti-phospho-PKC (pan), anti-p44/42 MAPK, anti-phospho-Raf, anti-phospho-SAPK/JNK, anti-phospho-p38 Map kinase, anti-phospho-Raf, anti-phospho-Akt, anti-phospho-CaMKII, anti-phospho-MARCKS, or anti-tubulin (loading control). After washing, bound antibodies were detected with peroxidase-labeled secondary antibody and ECL. With the exception of at least nine proteins in the P-Tyr-100 blot (FIG. 1), none of the effectors tested above appeared to be phospho-activated during lacritin signaling (not shown). For mitogenesis (Hussaini et al., '00), [^3H]-thymidine (2 mCi/ml) was added for the next 6 h. Incorporation was stopped with ice-cold phosphate buffered saline and followed by addition of cold and then room temperature trichloracetic acid (10%) for 10 min each, washing of cells with phosphate buffered saline, solubilization with 1 N sodium hydroxide, neutralization with 1 N hydrochloric acid, addition of scintillation fluid and then quantitation in a scintillation counter. To deplete PKCα in HSG cells, a pool of four PKCα-specific siRNAs (100 nM) were transfected via LipofectAMINE 2000 in Opti-MEMI Reduced Serum Medium (Invitrogen, Grand Island N.Y.) without serum and antibiotics according to manufacturer's instructions. Each of the four siRNAs was also individually transfected. In negative controls, cells were transfected with a pool of four lamin-specific siRNAs (Upstate LLC, Charlottesville Va.; Dharmacon Inc, Lafayette Colo.). Seventy-two hours post-transfection, mitogenesis was assessed by co-addition of 10 […] lacritin and [^3H]-thymidine (2 mCi/ml) (Amersham, Piscataway N.J.) for 24 hrs. PKCα depletion was confirmed by Western blotting.
Molecule,effect on Ca++ signaling after lacritin stimulation (HSG cells; Example 4),"effect on carbachol-stimulated calcium mobilization (HSG cells; U73122 1 μM, Go 6976 1 μM, even at 10 μM)","effect on lacritin-stimulated calcium mobilization (HSG cells; preincubation: pertussis toxin 100 ng/ml, U73122 1 μM, Go 6976 1 μM, or siRNA)",effect on TNF-α-induced caspase-8 activity (caspase-8),mitogenesis [1],proliferation in nominally calcium-free medium [2],time to detectable 3H-thymidine uptake ([2]; not shown),level of proliferation at optimal dose ([2]; vs 10% FBS positive control),calcium mobilization (HSG cells; 10 nM),calcium mobilization in EGTA-containing medium (HSG cells; 10 nM lacritin),time to calcium mobilization after addition (HSG cells; lacritin 10 nM),"mitogenic activity of deletion constructs ([2]; 10 nM, compared to intact lacritin)"
Cn1c2ccccc2c2c3c(c4c5ccccc5n(CCC#N)c4c21)CNC3=O [Go 6976],suppress Ca++ signaling,unaffected,completely inhibited,fail to block,,,,,,,,
B1,,,,completely blocked,mitogenic; also recorded: promote cell proliferation,proliferated in a bell-shaped lacritin dose-dependent manner,Within two hours,matching the FBS positive control,promotes calcium mobilization,mobilized internal calcium,≤ 30 s,
B2,,,,blocked,promote cell proliferation,,,,,,,active
